Assay results published in the RNAGym collection of RNA variant scans (doi:10.1073/pnas.2313332121).

B1: TPR t1 (parent)
chain: GACCAAUCUGCCCUCAGAGCUCGAGAACAUCUUCGGAUGCAGAGGAGGCAGGCUUCGGUGGCGCGAUAGCGCCAACGUCCUCAACCUCCAAUGCAUCCCACCACAUGAUGAUGCCUGAAGAGCCUUGGUUUUUUG

Variants of: B1
Experiment: polymerase ribozyme fitness, log enrichment relative to wild type (log ratio); higher = more active; in vitro selection for triplet polymerase activity
In short: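 Only genotypes with ≥10 input reads and ≥1 read per output were kept after Illumina sequencing of input and output libraries. These libraries were PCR-built, transcribed mutants of each subunit of a heterodimeric triplet polymerase ribozyme, each put through one triplicate in vitro selection round with frozen incubation at −7 °C, gel excision of extended constructs, streptavidin-bead capture and RT-PCR. Fitness is a logarithmic ratio of genotype enrichment to wild-type enrichment, from inverse-variance-weighted replicate averages, with the logarithm in base 2.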

Variant	polymerase ribozyme fitness (log ratio)
G48A G113U G120U	-3.65
G48C G60C	-1.63
G48C G60A	-1.1
G48C G61A A83U U87A G128U	-3.32
G48A G113C	-2.26
G48U C62A A91U C123U U125A	-4.09
G48C C53G	-0.405
G48A U54A	-0.741
G48U A83G C97U C104A G120A	-3.43
G48C U78G	-0.55
G48C C79U	-1.34
G48A C123A G135A	0.126
G48U C62U	-0.185
G48C C53A C79G C99A C124A	-7.85
G48U C62A U78G	-1.98
G48C A111C	-0.761
G48U A84G	0.021
G48U C56A C102U	-2.75
G48C G52C	-2.25
G48C U106A	0.0361
G48C C49A C56U U87A U96A G120C	-2.17
G48U C73G	-1.73
G48C C73A U112A G120C	-0.954
G48C C49U G71C C102A	-4.66

Variant	polymerase ribozyme fitness (log ratio)
G48U C53G C86U C98A C123G C124A	-5.23
G48C G60A C94G C115U	-3.74
G48C C49U A111U U133A	-4.49
G48C C56G C101U U125G	-1.87
G48A G63A C97A U112C	-4.92
G48C C56G C62U U78C	-1.82
G48C C114A	-1.76
G48A U96A	-1.94
G48C C104U G135U	-1.53
G48U C70U C86U G113A	-2.66
G48A U54C U55A C94A A118U	-1.02
G48A G57A G69U	-0.155
G48A G51U	-2.61
G48C A103U G120A	-6.04
G48A G51A G71A C79A A84U G128A U129G	-6.49
G48C C101U U109G	-5.98
G48U A66G C86A U125G G127C	-3.31
G48U A91U C104A	-5.89
G48C C62U	-2.91
G48C G57U G69U U92C	-1.31
G48A G63U A84G G128U	-3.63
G48A U81C C102A A121C	-0.944
G48C G63A G113A U126C	-3.69
G48C G69A	-3.69

Variant	polymerase ribozyme fitness (log ratio)
G48A U81A C98U	-2.94
G48C A95G U106A	-0.768
G48A G60U C115U	-0.887
G48A G69C C123U	-0.587
G48C U55C A95C C98U	-3.28
G48C A90U U112A	-0.162
G48C A90U U112G	-2.32
G48A G61U	-0.0763
G48A G57C C115G G122A	-1.91
G48C G57U U96C	-0.888
G48A U59A C79U U125G U130G	-1.48
G48C C56G G71A C97A C104U U112G	-6.76
G48U C56U C104A	-2.25
G48U C73G G110U G120U	-4.95
G48A U126G	-2.42
G48C A90G	0.432
G48U C49G U96A	-1.45
G48C C101U A105G G120U	-3.67
G48A U112C	0.294
G48A U112A	0.917
G48A G63U G113A	-2.17
G48A G117A	-2.44
G48C G71C	-0.845
G48A C115A	-1.47

Variant	polymerase ribozyme fitness (log ratio)
G48A C115U	-1.61
G48C C53G C64G G65A U109G	-6.8
G48A U87C C101A A105U	-3.9
G48A G69U C82G G113U U132A	-2.33
G48U A50U C89G U106A U116C C124U	-3.34
G48A G107A	-7.39
G48C G71A G110A G120A	-3.66
G48C G63A C101U	-0.648
G48C C72U U78C C86A C101A C114U C124U	-4.1
G48C C49A G128A	-3.09
G48C C53U U54C U81A	-2.99
G48C G127C	-1.62
G48C C49G C82U C124A G127C U133C G135U	-0.601
G48A U81A C102U	-4.06
G48C U133G	-1.8
G48C G60U A105C U116C	-5.8
G48A C124U U133G	0.41
G48U C62U G71C U96A	-2.08
G48C C72A C79G G127C	-3.9
G48U C53G C62U C73A U132A	-0.636
G48U A95U G117U	-3.3
G48C G93A	-1.82
G48C G93C	-0.578
G48A C101U G117C U129C	-6.15

Variant	polymerase ribozyme fitness (log ratio)
G48C A103G	-5.44
G48C C56U C73G	-1.95
G48A G63U C88U	-1.66
G48C C70U C124A	0.758
G48C C64G C124U	-5.87
G48C C62U A75G	-1.21
G48C C70U C85U G107U	-6.63
G48A G60U A90C C114A	-2.49
G48C C56A	-1.68
G48A U54G G71U C85U	-4.47
G48U A90U	-1.38
G48C G120A	-0.738
G48C G61U C124A	1.51
G48A G52U C80G	-5.98
G48C A50G C53U C73G	-1.36
G48A G61C A66U	-2.1
G48A G61U U112A U125G G127C	-0.619
G48U C62G C104A U106C	-5.05
G48U A121C	-0.0339
G48A U130A	-1.78
G48C C123G	0.677
G48C C62U U92G	-3.68
G48A G93C C114A	-2.27
G48C G113U C123A	-4.5

Variant	polymerase ribozyme fitness (log ratio)
G48C C49A U129A	-3.14
G48C U78A A111U C123A U129A	-6.15
G48A C124G	0.442
G48A G69C C79U U92G U116C G120C	-7.13
G48U C64U	-0.368
G48U C72G U96C	-1.54
G48A U78A C98U	-1.75
G48C G77A	-1.21
G48U A50G U92C A108G	-5.83
G48U C53G	-1.34
G48U C53U	-2.55
G48C U87G A95C	-3
G48C G57A G63A G93U G127A	-4.97
G48C G52U U55G C76U A100C U125G	-4.57
G48A G63U A121U	0.283
G48A G57U A95C U112A C114A	-3.34
G48C U131A	-1.82
G48C C56A C97A C104U U112G	-6.59
G48U C56A G69U C89A C115A A118U	-1.82
G48U C49A C73A C115U U133C	-1.19
G48A U92A	-3.51
G48C G61U C98U U112C	-1.23
G48A G63C U132A	-1.12
G48C G51U C73U C76A G77A A119G	-6.51

Variant	polymerase ribozyme fitness (log ratio)
G48A G61A A103C C104U	-5.34
G48C G63A	-0.954
G48C G63C	-2.72
G48C A50G G51U C56G G117A	-5.49
G48A G93A C114G	-3.84
G48C C76U C88U	-1.76
G48C G60U A74U C115U	-2.52
G48A G69U C98G U125A U131C	-3.58
G48C G110C U116G A119G C123A	-5.26
G48U C49U C73G G120U	0.0945
G48C C73G G93A	-1.8
G48C U55G C79U A84C C85G G93U C124A	0.322
G48C C115A A121U	0.474
G48U C62A G127C	-3.44
G48A G77U G135U	-1.78
G48U A66U C72A U96G U112C	-1.61
G48A U131A	-0.843
G48A C123A	0.577
G48A G71A	-1.09
G48C G60U U106A G107C	-6.48
G48C C49A A50G G52C C53U C86G C94U C114A	-3.63
G48A G71A C102A	-3.85
G48U C72G	-1.7
